This note sets out measurements from patent US7250505 (FRED HUTCHINSON CANCER RESEARCH CENTER, dated 2007).

Positions count from the first letter of the chain named. Non-standard residues stand in square brackets, D forms with d. No end group written: not given here. pY = N[C@@H](Cc1ccc(OP(=O)(O)O)cc1)C(=O)O

One test has as its target T1, activated Src (Src527F) (UniProt P00523 1-533).
T1 construct: the old residue (Tyr) is from general knowledge
In words: co-expression with Src527F in 293T cells, immunoprecipitation and immunoblot.

Test [1] deals with T2, APP protein (endogenous, full-length) (UniProt P12023 18-770, limits assumed).
T2 construct: P19 is a mouse line by general knowledge; also called endogenous, full-length APP; amyloid precursor protein
In words: GST pull-down from P19 cell extracts, Western blot. Background: In western blotting, separated proteins are transferred to a membrane and probed.
Experimental: To test whether mDab1 would bind to the cytoplasmic tail of the APP protein, extracts of P19 cells were incubated with GST fusion proteins and subjected to immunoblot analysis as described above. […] Bound proteins were detected by SDS-PAGE followed by Western blotting.

The target of test [2] is T3, GST-mDab1 PTB domain fusion protein (mouse, UniProt O75553 29-197 (human entry)).
T3 construct: also called GST-PTB; not shown: glutathione S-transferase encoded by the pGEX-2T vector
T3 sequence: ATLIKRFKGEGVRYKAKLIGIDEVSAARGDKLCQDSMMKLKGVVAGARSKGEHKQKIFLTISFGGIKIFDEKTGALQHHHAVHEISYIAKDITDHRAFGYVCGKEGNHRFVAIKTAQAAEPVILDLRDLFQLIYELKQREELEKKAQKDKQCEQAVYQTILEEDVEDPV
Put plainly: cellulose peptide array, radiolabeled GST-PTB.

Test [3] concerns the target LexA-Src(295R) fusion protein (UniProt P0A7C2 1-202; P00523 1-533). Put plainly: yeast two-hybrid, beta-galactosidase filter assay.

B1: mDab198/200F (mutant mDab555 with Phe in place of Tyr 198 and Tyr 200) (other)
chain: MSTETELQVAVKTSAKKDSRKKGQDRSEATLIKRFKGEGVRYKAKLIGIDEVSAARGDKLCQDSMMKLKGVVAGARSKGEHKQKIFLTISFGGIKIFDEKTGALQHHHAVHEISYIAKDITDHRAFGYVCGKEGNHRFVAIKTAQAAEPVILDLRDLFQLIYELKQREELEKKAQKDKQCEQAVYQTILEEDVEDPVFQFIVFEAGHEPIRDPETEENIYQVPTSQKKEGVYDVPKSQPVSAVTQLELFGDMSTPPDITSPPTPATPGDAFLPSSSQTLPGSADVFGSMSFGTAAVPSGYVAMGAVLPSFWGQQPLVQQQIAMGAQPPVAQVIPGAQPIAWGQPGLFPATQQAWPTVAGQFPPAAFMPTQTVMPLAAAMFQGPLTPLATVPGTNDSARSSPQSDKPRQKMGKESFKDFQMVQPPPVPSRKPDQPSLTCTSEAFSSYFNKVGVAQDTDDCDDFDISQLNLTPVTSTTPSTNSPPTPAPRQSSPSKSSASHVSDPTADDIFEEGFESPSKSEEQEAPDGSQASSTSDPFGEPSGEPSGDNISPQDGS
notes: Co-expressed with Src527F in 293T cells
As to B1, the “fold reduction of the in vivo association against mDab555” value with activated Src (Src527F) was about 2 fold.

B2: GST-mDab1 56E PTB domain fusion protein (other)
chain: T3 sequence with R28E
notes: also called mDab56E-GST; mutant mDab1 PTB; not shown: GST of pGEX-2T and its linker
Consider B2, for which, in test [1], the binding result is on record as “no binding”.

Turning to IIENPQ[pY] (also: on cellulose array, NPXpY peptide on a cellulose array) [TrkA peptide with the motif Ile Ile Glu Asn Pro Gln Tyr, phosphorylated], in test [2], the binding result was “no binding”.

B3: TrkA peptide with the motif Ile Ile Glu Asn Pro Gln Tyr, not phosphorylated (peptide)
peptide: IIENPQY
notes: 15 to 17 residue peptide on a cellulose array; only the motif is printed; also called NGF receptor (TrkA) peptide
Take B3: the binding result in test [2] is recorded as “no binding”.

B4: mDab1 clone B3 fused to the VP16 transactivation domain (other)
chain: HHHAVHEISYIAKDITDHRAFGYVCGKEGNHRFVAIKTAQAAEPVILDLRDLFQLIYELKQREELEKKAQKDKQCEQAVYQTILEEDVEDPVYQYIVFEAGHEPIRDPETEENIYQVPTSQKKEGVYDVPKSQPVSAVTQLELFGDMSTPPDITSPPTPATPGDAFLPS
Take B4: the binding result in test [3] is “no binding”.
